The source of these data is patent US20020127652A1 (published 2002).

For this assay, the target named is T1, human FSH receptor (human, UniProt P23945 18-695).
T1 sequence (looked up): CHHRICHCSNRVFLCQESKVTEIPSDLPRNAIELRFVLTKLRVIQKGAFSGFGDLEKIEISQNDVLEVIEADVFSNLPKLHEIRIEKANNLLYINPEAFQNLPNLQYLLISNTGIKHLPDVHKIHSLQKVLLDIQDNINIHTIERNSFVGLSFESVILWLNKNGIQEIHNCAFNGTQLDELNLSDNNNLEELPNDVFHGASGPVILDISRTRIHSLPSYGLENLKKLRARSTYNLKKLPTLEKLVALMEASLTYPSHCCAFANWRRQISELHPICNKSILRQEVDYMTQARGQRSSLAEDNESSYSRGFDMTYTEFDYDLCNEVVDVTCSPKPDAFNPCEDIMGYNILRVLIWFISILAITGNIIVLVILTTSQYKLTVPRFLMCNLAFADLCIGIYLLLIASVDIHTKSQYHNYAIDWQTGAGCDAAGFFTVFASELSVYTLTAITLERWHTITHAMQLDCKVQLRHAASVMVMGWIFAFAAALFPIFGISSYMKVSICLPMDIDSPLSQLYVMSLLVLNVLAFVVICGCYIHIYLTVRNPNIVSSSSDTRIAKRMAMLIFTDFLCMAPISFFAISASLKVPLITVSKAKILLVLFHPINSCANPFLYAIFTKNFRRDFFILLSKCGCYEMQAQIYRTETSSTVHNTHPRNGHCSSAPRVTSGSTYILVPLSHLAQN
Nature of the assay: cell-based or functional assay.

B1: wildtype human FSH (follicle stimulating hormone), recombinant, produced in CHO K1 cells (ligand)
chain 1: not shown
chain 2: CELTNITIAIEKEECRFCISINTTWCAGYCYTRDLVYKDPARPKIQKTCTFKELVYETVRVPGCAHHADSLYTYPVATQCHCGKCDSDSTDCTVRGLGPSYCSFGEMKE
For the molecule B1, the “luciferase signal of the CHO FSH-R/CRE-luc reporter clone, EC50” value was roughly 0.01 IU/ml.

B2: FSH1208, variant form of FSH containing two N-linked glycosylations at the N-terminus of the alpha subunit (ligand)
chain 1: not shown
chain 2: B1 chain 2
modifications: both asparagine residues of the N-terminal extension … are glycosylated
Turning to B2, the “specific activity (in vitro bioactivity in the FSH luciferase assay per FSH content by ELISA), relative to wildtype FSH” value was ~0.33 fold of the wildtype reference.
